Measurements from patent US20070004909A1 (MacroGenics, published 2007).

Assays:
soluble CD32B (sCD32B) = molecular target: T1, soluble CD32B (sCD32B) (UniProt P31994 43-217, limits assumed); experiment: SPR (BIAcore), sCD32B immobilised, diabody injected for 60 s
T1 construct: extracellular domain; As immobilised on the BIAcore chip; also called FcγRIIB
T1 sequence (looked up): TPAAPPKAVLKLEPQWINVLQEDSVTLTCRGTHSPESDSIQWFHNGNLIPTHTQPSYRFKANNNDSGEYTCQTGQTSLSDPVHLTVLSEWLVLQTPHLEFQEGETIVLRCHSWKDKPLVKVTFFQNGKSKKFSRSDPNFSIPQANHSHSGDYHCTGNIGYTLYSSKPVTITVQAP
Description: (§1) The binding of h2B6-h3G8 CBD, h2B6 CMD and h3G8 CMD to sCD16A, sCD32B, and sCD32A (negative control) was assayed by SPR analysis. h3G8 scFv was also tested as a control. (A) Binding to sCD16; (B) Binding to sCD32B and (C) Binding to sCD32A. Diabodies were injected at a concentration of 100 NM, and scFv at a concentration of 200 nM, over receptor surfaces at a flow rate of […] for 60 sec.

soluble CD32A (sCD32A) = molecular target: T2, soluble CD32A (sCD32A) (UniProt P12318 34-217, limits assumed); experiment: SPR (BIAcore), sCD32A (negative control receptor) immobilised, diabody injected for 60 s
T2 construct: extracellular domain; Negative control surface in SPR; also called control receptor
T2 sequence (looked up): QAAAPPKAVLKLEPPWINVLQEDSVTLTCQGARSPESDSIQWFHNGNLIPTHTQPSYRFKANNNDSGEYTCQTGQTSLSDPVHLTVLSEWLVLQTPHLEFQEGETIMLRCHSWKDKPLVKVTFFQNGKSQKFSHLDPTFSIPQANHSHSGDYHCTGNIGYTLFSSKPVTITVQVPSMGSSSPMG
Description: as §1

sCD32B-Ig = molecular target: T3, sCD32B-Ig (UniProt P31994 43-217); experiment: sandwich ELISA: sCD32B-Ig coated on the plate, diabody titrated, detected with labelled sCD16A; OD450
T3 construct: extracellular domain; also called CD32B (ELISA coat); sCD32B (target protein of the sandwich ELISAs); not shown: Ig part of sCD32B-Ig is not described
T3 sequence (looked up): T1 sequence (looked up)
Description: The binding of h2B6-h3G8 CBD to sCD32B and sCD16A was assayed in a sandwich ELISA. sCD32B was used as the target protein. The secondary probe was HRP conjugated sCD16A. h3G8 CMD, which binds CD16A, was used as control.
ELISA: The binding of eluted and purified diabodies was characterized by ELISA assay, as described in 5.4.2. 50 ul/well of a 2 ug/ml solution of sCD32B-Ig was coated on 96-well Maxisorp plate in Carbonate buffer at 4° C. over night. The plate was washed three times with PBS-T (PBS, 0.1% Tween 20) and blocked by 0.5% BSA in PBS-T for 30 minutes at room temperature. Subsequently, h2B6-h3G8 CBD, h2B6 CMD, or h3G8 CMD were diluted into the blocking buffer in a serial of two-fold dilutions to generate a range of diabody concentrations, from 0.5 μg/ml to 0.001 μg/ml. The plate was then incubated at room temperature for 1 hour. After washing with PBS-T three times, 50 ul/well of 0.2 ug/ml sCD16A-Biotin was added to each well. The plate was again incubated at room temperature for 1 hour. After washing with PBS-T three times, 50 ul/well of a 1:5000 dilution of HRP conjugated streptavidin (Amersham Pharmacia Biotech) was used for detection. The HRP-streptavidin was allowed to incubate for 45 minutes at room temperature. […] The OD450 nm was read by using a 96-well plate reader and SOFTmax software, and results plotted using GraphPadPrism 3.03 software. […]

soluble CD16A (sCD16A) = molecular target: T4, soluble CD16A (sCD16A) (UniProt P08637 17-208, limits assumed); experiment: SPR (BIAcore 1000); receptor amine-coupled (~1000 RU), analyte 6.25-200 nM; units not printed (koff/kon implies nM)
T4 construct: extracellular domain; Amine-coupled to the chip in SPR; biotin- or HRP-conjugated as the probe in the sandwich ELISAs; also called FcγRIIIA; sCD16A-Biotin
T4 sequence (P08637 17-208 limits assumed): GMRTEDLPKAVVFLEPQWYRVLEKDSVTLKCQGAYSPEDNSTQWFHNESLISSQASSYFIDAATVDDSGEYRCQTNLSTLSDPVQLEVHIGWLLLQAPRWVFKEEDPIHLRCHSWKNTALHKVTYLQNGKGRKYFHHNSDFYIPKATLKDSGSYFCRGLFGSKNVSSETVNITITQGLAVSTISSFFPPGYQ
Description: The binding of h2B6-h3G8 CBD, h2B6 CMD and h3G8 CMD to sCD16A, and sCD32B was assayed by SPR analysis. h3G8 scFv was also tested as a control. (A) Binding of to h3G8 CMD sCD16A; (B) Binding of h2B6-h3G8 CBD to sCD16A; (C) Binding of h3G8 scFv to sCD16A; (D) Binding of h2B6 CMD to sCD32B; and (E) Binding of h2B6-h3G8 CBD to sCD32B. Diabodies were injected at concentrations of 6.25-200 nM over receptor surfaces at a flow rate of […] for 180 sec.
SPR analysis was also used to estimate the kinetic and equilibrium constants of the CMDs and h2B6-h3G8 CBD to sCD16 and/or sCD32B. Results were compared to the same constants calculated for an h3G8 scFV. FIGS. 7A-E show the graphical results of the SPR analysis. The kinetic on and off rates, as well as the equilibrium constant, calculated from the results depicted in FIG. 7 are provided in Table 13.

B1: h3G8 covalent monospecific diabody (CMD) (other)
chain 1: DIVMTQSPDSLAVSLGERATINCKASQSVDFDGDSFMNWYQQKPGQPPKLLIYTTSNLESGVPDRFSGSGSGTDFTLTISSLQAEDVAVYYCQQSNEDPYTFGQGTKLEIKGGGSGGGGQVTLRESGPALVKPTQTLTLTCTFSGFSLSTSGMGVGWIRQPPGKALEWLAHIWWDDDKRYNPALKSRLTISKDTSKNQVVLTMTNMDPVDTATYYCAQINPAWFAYWGQGTLVTVSSLGGC
chain 2: B1 chain 1
modifications: Covalent homodimer: disulfide between the C-terminal LGGC cysteines of the two identical chains.
notes: also called h3G8 CMD; h3G8 diabody
binding result (soluble CD32B (sCD32B)): no binding (tested: 100 nM)
binding result (soluble CD32A (sCD32A)): no binding (tested: 100 nM)
binding result (sCD32B-Ig): no binding (tested: 0.5 ug/ml)
Kd (soluble CD16A (sCD16A)): 18 nM
